19 sequences from the DeepSol protein solubility set can be followed below.

This data set can be described thus: soluble on expression in E. coli; label from the status in PepcDB or PDB records.
For the sequence “MFENESLSFEEQTIIQAAERYVQQELANEASGHDWWHIYRVTQLAKTIAEKEQANLFLCILTALLHDIGDEKFNESEEAGLLKVQQWLEANNVSTEQTNHILSIIANMSFKGGNTGKTVTTLEGKVVQDADRLDAIGAIGIARVMAYSGNKGRLIHDPHKQPREQLTQEEYRNGEDTAIMHFYEKLLKLKEQMNTNYGRLLAEKRHQFMELYLEEFYQEWDGHR”, the “soluble on expression in E. coli” value is reported as “not soluble”.

For the sequence “MFFIGIFGIEEKAKVIRQIDVEICPFCTRKGSYTLFKVYNYLHFFFIPVLRWNTRYFIQTSCCSKVYLITNPQLAHDLEYGKDVPITLADVELFRNLQGMYQEGIDSDFCPNCGNRVSKNFLYCPYCGQKLELEHHHHHH”, the “soluble on expression in E. coli” value was “not soluble”.

For the sequence “MFFIRTAGLRDIEPVRTLLATTWHATYDAIYGADKVNELIAVWHSPQAMKDRVEKKGGEFLVADDGKRIGGMAYGSMSTKMAKTALLHQLYVAPDLQRQGVGRDLFAELETCFPDAEIMRLEVEPKNTVAIAFYEGVGFVEVDRIERMAGIEGLPGIVMEKSLTR”, the “soluble on expression in E. coli” value was “not soluble”.

Regarding “MFGKGGLGNLMKQAQQMQEKMQKMQEEIAQLEVTGESGAGLVKVTINGAHNCRRVEIDPSLLEDDKEMLEDLVAAAFNDAARRIEETQKEKMASVSSGMQLPPGFKMPF”, the “soluble on expression in E. coli” value is listed as “soluble”.

As to “MFGKTLLRRIACSNLNLKSRKLSGKPRLAIVGSGPAGMFACNGLLRKSNFSVDVFENSPVPFGLVRYGVAPDHQEVKNVINTFDAMFEKNRERLKLFCNVNIGRDITFDELTRGYDAVLLAYGSYKTRTLDIPGSDASNVISGSEFVGWYNGVPNASTPDLTTSNVVIVGNGNVALDCARVLSTASSGLLRISDIPGDRLNVLEGANVKDIKILGRRGPEHVSFTIKELREQFKIKDWDSKLEISEIDAKNLTESLPKLERKKKRLTEVLVKNIGIANGLRQCHFIFHRIPEKIIADSNGKVQEIIVKNNETGQEETYPCGLLIYSIGYQTLVLDGVPQNDKKMIDMKDHCRVNMVAACSSQVYATGWCAHGPHGIIVDTQQQSIFVADQIAADFAQFKDSTSNGVEELLEDRKVPFISWDEWKQIDRQEQDTGKLSGKIREKFTTFEKFLTKLKKCN”, the “soluble on expression in E. coli” value is listed as “not soluble”.

Regarding “MFIESRELVMKHRIPVAKTERYWKGLEEGKVFKTVCKSCGKEHHPPRAECLCGGEVEWVEITGEGVVEAFTTVHTIPAGFEWHREPYTIAIARFGEVRVMGWAKEVRVGDVVRLKPGKDETGVWKVYFEVV”, the “soluble on expression in E. coli” value was “not soluble”.

On to “MFIRGREMISAVIEALIGSISLSTGLHTKKIDANIRYLQQYEWFRIIYEDEKYRKLFITNYKVRSYLQSKLRVRLLVKNKNAQRRFLKLVEEQIEKRHTN”, for which the “soluble on expression in E. coli” value is recorded as “not soluble”.

As for “MFKGIVQGAGIIKKISKNDDTQRHGITFPKDILESVEKGTVMLVNGCSLTVVRISGDVVYFDIDQAINTTTFRELEVGNKVNLEVRPEFGSLLGKGALTGNIKGVATVDNITEEEDRLKVYIKIPKDLIENILSEDHIGINGVSHSIEEISDDIIFINYPKNLSITTNLGTLEKGSDVNVETLNVSNEWD”, the “soluble on expression in E. coli” value was “soluble”.

Take “MFKHIISCLLLISATSALAAEKPTLTVYTYDSFAADWGPGPAIKQAFEAECDCQLKFVALEDGVSLLNRLRMEGKNSQADVILGLDNNLVQAAEQTGLFTPSQVDTRNLTLPEPWQNKTFVPYDYGYFAFVYNKEKLKNPPKSLHELISSKEPWKVIYQDPRTSTPGLGLMLWMQKVYGDQAPQAWQQLAQKTVTVTKGWSEAYGLFLKGEADLVLSYTTSPAYHLIAEKNNNYAAADFSEGHYLQVEVAGQLAASKQPELAQRFMQFIVTPAFQNHIPTGNWMYPVIKMDLPAGFETLAVPQTALQFDAKDVADNRSKWIQAWQSAVSR”: the “soluble on expression in E. coli” value is reported as “not soluble”.

Turning to “MFKKEKGGWFYMAGLKVEWNDWCPGCGNFGILSAEQQAIQELGLDPKKVVLVSGIGCSGKIPHFIRLPASGVHTLHGRALTFAIGIKLANPSLEVIVNGGDGDQLGIGVGHFVSAGRRNVDLTVIVHNNGVYGLTKGQASPTLKLGVKTKSLPKPNINSDINPIALAISSGYTFVARGYAYDVKHLKEIIKKAIKHKGLAMIDVLQPCPTYNDIHTKEYYDKRVYKLDEDPSWDPIVKKPEEMDDKMSKAILKSMEWGDRIPIGIFYQNELVSTYEQRIAERSPSYLDNPPAHDVIEFEGKPTTDVEDILKERRVT”, the “soluble on expression in E. coli” value is on record as “not soluble”.

With “MFKQFIEDAKSIAERDPAATSVLEVIFLYSGFHAVCLHRIAHWFYKRNMRFIARFISQLNRFLTGVEIHPGAKIGKGLFIDHGMGVVIGETAEVGDNCTIYHNVTLGGTGKDKGKRHPTIGNNVLISTGAKVLGPFKVGDNSRIGANAVVLNEVEPNTTVVGVPGRAVKRGNQKIVPSIELDQIHIPDPVAQELCRIKQRLESLEKELMEMRRASQGSNVQEPVPQEKSCEEECKLEMGKEIADNETL”, the “soluble on expression in E. coli” value is recorded as “not soluble”.

“MFMKYALFPGCKIAFERPDLELAMREVLTALDVPFEYLSDFSCCPTWASVPSFDIEAWLAISARNISLAEEKGLDIVVGCGDCYSVLNHARDMLKREEWRERVNRILAKVGRVYRGTTKIYHIIHLLEERKIKKNLKHRLNGFVAGVQPGCHLLWPAKIFDAKEENPFFPERLKKLVEAMGAETPHYSRLEYCCGNHIDIVDYEKFLDFVQLKLQSLKEEIDPDFIVTACSTCFIQLDEGQKRLKRLGRIDYEIPVFHFPQLLAICLGSNPEKVARISSVDRSKIISEILEGRE”: the “soluble on expression in E. coli” value is “not soluble”.

Turning to “MFNDLESKLQSLLERNITSVLELENWLFDELRVNAEIEEKITSSLIATYRDTDNRNMRDLHMYNQNTIQPLLKRYNAKFDQKFIECPFSNLLDERKYEFMKKARFVKSKMFNEKNIALSIKGQECITKYREIMSNITINWEGEQKTYAHVKAKLDNPNRAIRKKAWYALCEARSVVKPEVDRIMNELIQLRNEIALNAGFNNYSEYAFKQKNRDYSIDDCYKLHESIEKYVVPIWKQLGSISKKNLDVKTYRPWDLSPCNLPKAPFQNAINLLDGVEEMFRTTDLYFYEKFIHIRKAGCIDVEERENKAAGAICFTLPHSKEVFVYSNFSPSFYAINALIHEVGHAFHFYKQFKNDSSMQERYLREEVAELYSLSLELLVMDKLNVFYKQEDEYKEVQRVQIYRALSLLMSSIAGDVFQHWIYENPNHTPEERDKKYAEICKRYQYSTVDIAGLEDEIGASWIESFHYVQFPFYKIEYAIAQIGAMQLFQIYWEDPEKAIDFFKEGASADWNLSIQEIYEKTGVTFDFSEERIESTASVILDLINELK”, the “soluble on expression in E. coli” value is reported as “not soluble”.

With “MFNKLSTPIHIIGGGLAGCEASWQIAQSGIPVILHEMRPQKKSEAHKTGQLAELVCSNSFRSDDSSTNAVGLLHTEMRLAKSLIMKAADANKVPAGSALAVDRDGFSKTVTAALENHPLITIKREEIQEIPENWPHIIIATGPLTSPKLAKAIQTITGTEALSFFDAIAPIIYTDSINMDICWYQSRYDKIGPEGTGKDYLNCPLNKEQYEAFVQALKNAEKTEFRDFEKTPYFDGCLPIEVMAERGLETLRHGPMKPMGLTNAHNPTVKAYAVVQLRQDNKLGTLYNMVGFQTKLKYGEQVRIFRMIPGLENAEFARLGGLHRNTYLNSPIILDQTLRLKQRPGLRFAGQITGCEGYVESSAIGLLAGRFAAAEYHYNCPCLPPLTTALGLEHHHHHH”, the “soluble on expression in E. coli” value was “soluble”.

As to “MFRAGEASKRPLPGPSPPRVRSVEVARGRAGYGFTLSGQAPCVLSCVMRGSPADFVGLRAGDQILAVNEINVKKASHEDVVKLIGKCSGVLHMVIAEGVGRFESCSSDEEGGLYEGKGWLKPKLDSKALGINRAERVVEEMQSGGIFNMIFENPSLCASNSEPLKLKQRSLSESAATRFDVGHESINNPNPNMLSKEEISKVIHDDSVFSIGLESHDDFALDASILNVAMIVGYLGSIELPSTSSNLESDSLQAIRGCMRRLRAEQKIHSLVTMKIMHDCVQLSTDKAGVVAEYPAEKLAFSAVCPDDRRFFGLVTMQTNDDGSLAQEEEGALRTSCHVFMVDPDLFNHKIHQGIARRFGFECTADPDTNGCLEFPASSLPVLQFISVLYRDMGELIEGMRARAFLDGDADAHQNNSTSSNSDSGIGNFHQEEKSNRVLVVDLGGSSSRHGPGGSAWDGVGGRGAQPWGAPWTGPFCPDPEGSPPFEAAHQTDRFWDLNKHLGPASPVEVPPASLRSSVPPSKRGTVGAGCGFNQRWLPVHVLREWQCGHTSDQDSYTDSTDGWSSINCGTLPPPMSKIPADRYRVEGSFAQPPLNAPKREWSRKAFGMQSIFGPHRNVRKTKEDKKGSKFGRGTGLTQPSQRTSARRSFGRSKRFSITRSLDDLESATVSDGELTGADLKDCVSNNSLSSNASLPSVQSCRRLRERRVASWAVSFERLLQDPVGVRYFSDFLRKEFSEENILFWQACEYFNHVPAHDKKELSYRAREIFSKFLCSKATTPVNIDSQAQLADDVLRAPHPDMFKEQQLQIFNLMKFDSYTRFLKSPLYQECILAEVEGRALPDSQQVPSSPASKHSLGSDHSSVSTPKKLSGKSKSGRSLNEELGDEDSEKKRKGAFFSWSRTRSTGRSQKKREHGDHADDALHANGGLCRRESQGSVSSAGSLDLSEACRTLAPEKDKATKHCCIHLPDGTSCVVAVKAGFSIKDILSGLCERHGINGAAADLFLVGGDKPLVLHQDSSILESRDLRLEKRTLFRLDLVPINRSVGLKAKPTKPVTEVLRPVVARYGLDLSGLLVRLSGEKEPLDLGAPISSLDGQRVVLEEKDPSRGKASADKQKGVPVKQNTAVNSSSRNHSATGEERTLGKSNSIKIKGENGKNARDPRLSKREESIAKIGKKKYQKINLDEAEEFFELISKAQSNRADDQRGLLRKEDLVLPEFLRLPPGSTELTLPTPAAVAKGFSKRSATGNGRESASQPGEQWEPVQESSDSPSTSPGSASSPPGPPGTTPPGQKSPSGPFCTPQSPVSLAQEGTAQIWKRQSQEVEAGGIQTVEDEHVAELTLMGEGDISSPNSTLLPPPSTPQEVPGPSRPGTSRF”, the “soluble on expression in E. coli” value is given as “soluble”.

Consider “MFRGIVQGRGVIRSISKSEDSQRHGIAFPEGMFQLVDVDTVMLVNGCSNTVVRILGDMVYFDIDQALGTTTFDGLKEGDQVNLEIHPKFGEVVGRGGLTGNIKGTALVAAIEENDAGFSVLIDIPKGLAENLTVKDDIGIDGISLPITDMSDSIITLNYSRDLLASTNIASLAKDVKVNVEILNEW”, for which the “soluble on expression in E. coli” value is given as “soluble”.

Turning to “MFRLSALYRYPIKSSAAESLERVALDALGVVGDRRWMAVDTETGRFFTQRLLPQLGRIQARWAAPEVLRLNAPGMSELSLEVPAADANLRGVTVWRDTLQAPDAGDAAADWLTRFLGRPTRLVHIPEARARQVDTGYAEPGQKVHFADGFPLLLIGQASLDDLSQRVGRPLEMLRFRPNLVVEGSAAFAEDGWKRIRIGSVEFVVAKPCSRCILTTLDPATGERNEDREPLTTLKTYREKDGAVLFGQNLIALGQGSLEVGMPVEILD”, the “soluble on expression in E. coli” value is “soluble”.

With “MFRVTCIDLENGEFALYINGHYLSSEDGSGEKLYLGDILERLSRLPGVTTETVERPVPDSDEWSWNDVADSVFPACITLSRNMTVAAFKQRLSRFPDDALCCGTFWLASDFLALDSSLTEDDIDAAMELAQHCHDANDGFNWSHLQWAIDEVKRGG”, the “soluble on expression in E. coli” value is on record as “not soluble”.

On to “MFSCISPQKSPAFSPEQEKMLKSNRANEPQSFVKGNDAAKSDLIDLEEVVTNWAKTMFDVTKSKAEGKIKKKYLSYNINWTKLFQECSEPTYTILGAKPNVVDAKQDEKVIFKTTFTNTTQREQEYSFKTERCTRSSSTVIIEKGVCRGAEVSLKLKTPCEVVEANAGFTTEVMLNHIGENTSEEELTWGVDSCVKVPPGAETVAELVIIEDIVTRDFRIENRLSGKVLVTITNLKENNSLVTIIEGNICDIIRGMPDYTAKGFRFDGPAAIYETRGQCIFRFGIEQKVRINEFSLNSSRRY”, for which the “soluble on expression in E. coli” value is on record as “not soluble”.
